As usually defined, the IC50 is the concentration at which inhibition is half-maximal. Lower therefore signals greater potency.

One test relates to PC3 cells. The experiment in a line: In vitro cell viability (cell kill) assay, CCK8. The format is cell-based, human. The source says:
(§1) PRLR-overexpressing cells, including HEK293, PC3, MCF7 and NCI-N87, were generated to assess the ability of anti-PRLR conjugated antibodies to reduce cell viability. For comparative purposes, PC3 and T47D cells with overexpressed ErbB2 were also generated, as well as an MCF7 cell line over-expressing both hPRLR and hErbB2. Briefly, Lipofectamine® 2000-mediated transfection methodology was utilized to generate HEK293 cells expressing human PRLR (HEK293/hPRLR) or human ErbB2 (HEK293/hErbB2). Lipofectamine LTX with Plus Reagent was used to generate PC3 cells expressing human PRLR (PC3/hPRLR) or human ErbB2 (PC3/hErbB2). Lentiviral-mediated transduction was utilized to generate MCF7 cells expressing human PRLR (MCF7/hPRLR), NCI-N87 cells expressing human PRLR (NCI-N87/hPRLR), T47D cells over-expressing human ErbB2 (T47D/hErbB2), and MCF7 cells expressing both human PRLR and human ErbB2 (MCF7/hPRLR/hErbB2). All lines were selected for at least two weeks in complete growth media plus appropriate selection reagents. Stably expressing populations were enriched for PRLR expression via FACS using the anti PRLR antibody Control I.
(§2) Next, the ability of anti-PRLR-DM1 antibody-drug conjugates (i.e., anti-PRLR antibodies conjugated to DM1 via a non-cleavable linker [SMCC]) to reduce cell viability was determined using in vitro cell based assays. Cells were seeded in PDL-coated 96 well plates at 1500 to 10000 cells per well in complete growth media and allowed to grow overnight. For cell viability curves, ADCs or free DM1 (as the methyl disulfide derivative DM1-SMe) were added to the cells at final concentrations ranging from 500 nM to 5 pM and incubated for 3 days. The 293, PC3 and T47D cells were incubated with CCK8 (Dojindo, Rockville, Md.) for the final 1-3 hours and the absorbance at 450 nm (OD450) was determined on a Flexstation3 (Molecular Devices, Sunnyvale, Calif.). MCF7 cells were treated with Hoechst 33342 nuclear stain while being fixed with 4% formaldehyde. Images were acquired on the ImageXpress micro XL (Molecular Devices, Sunnyvale, Calif.) and nuclear counts were determined via Columbus image analysis software (Perkin Elmer, Shelton, Conn.). Background OD450 values (PC3, 293, and T47D) or nuclear counts (MCF7) from digitonin (40 nM) treated cells was subtracted from all wells and viability was expressed as a percentage of the untreated controls. IC50 values were determined from a four-parameter logistic equation over a 10-point response curve (GraphPad Prism).

A further test relates to HEK293 (293) cells. The experiment in a line: In vitro cell viability (cell kill) assay, CCK8. The format is cell-based, human. The note with it: 293.
Excerpt: as §1, §2

For a further test, the system named is PC3/PRLR tumors. The experiment in a line: PC3/PRLR xenograft, tumor size and tumor growth inhibition. The format is in vivo, SCID mice. The source says:
(§3) Briefly, 20×10^6 MCF7/PRLR cells (ATCC HTB-22 transfected with full length hPRLR as previously described) were implanted subcutaneously into the left mammary fat pad of female NCr nude mice. In other studies, 10×10^6 PC3/PRLR (ATCC CRL-1435 transfected with full length hPRLR as previously described) were implanted subcutaneously into the left flank of male SCID mice. Additionally, 10×10^6 parental T47D (ATCC HTB-133) or 7.5×10^10 T47D #11 cells (ATCC HTB-133 serially passaged in vivo as described below) were subcutaneously implanted into the left flank of female CB17 SCID mice. All mice were obtained from Taconic (Hudson, N.Y.). Each bolus of cells was supplemented with a 90-day estrogen release pellet (1.7 mg/pellet; Innovative Research America, Sarasota Fla.). […] Control reagents included PBS vehicle, free methyl-disulfide DM1 (DM1-SMe) and isotype Control 1-DM1.
(§4) In multi-dose studies, mice were dosed once a week for a total of three weeks with tumor volumes and body weights being monitored twice weekly throughout the study. Test ADCs were dosed at 5 and/or 15 mg/kg in the multi-dose studies. In single-dose studies, mice received a single dose of test ADC, and tumor volumes and body weights were monitored twice weekly throughout the study. Test ADCs were dosed at 1, 2.5, 5, and 15 mg/kg in the single-dose studies. Average tumor size as well as tumor growth inhibition relative to the vehicle treated group were calculated for each group. Tumors were measured with calipers twice a week until the average size of the vehicle group reached 1000 mm^3. Tumor size was calculated using the formula (length×width^2)/2. Tumor growth inhibition was calculated according to the following formula: (1−((Tfinal−Tinitial)/(Cfinal−Cinitial)))*100, where T (treated group) and C (control group) represent the mean tumor mass on the day the vehicle group reached 1000 mm^3. […] Results are summarized in Tables 21-25 (multi-dose) and Table 26 (single dose). (NT=not tested in the particular experiment shown).

Another test concerns MCF7/PRLR tumors. The experiment in a line: MCF7/PRLR breast cancer xenograft, tumor size and tumor growth inhibition. The format is in vivo, NCr nude mice. The note with it: for Average Tumor Growth Inhibition (%) / Final Tumor size mm^3 (mean ± SEM): MCF7/PRLR tumors TRIAL #1, NCr Nude mice, Day 52.
Excerpt: as §3, §4

[1] abbreviates: PC3/PRLR tumors TRIAL #1, SCID mice, multi-dose 5 mg/kg, Day 63.

B1: H1H6953N-SMCC-DM1 (conjugate)
VH: EVQLLESGGGLVQPGGTLRLSCAASGFTFSAYAMSWVRQAPGKGLEWVSSINVRAGDTYYADSVKGRFTISRDNSKNTLFLLMNSLRAEDTAAYYCAKARYSSNWGFDFWGQGTLVTVSS
VL: DIVMTQSPDSLTVSLGARTTINCQSSQTILHSSNNHNYLAWYQQKPGLPPKLLIYWSSTRESGVPDRFSGSGSGTDFTLTISSLQAEDVAIYYCQQYSNTPYTFGQGTKLEIN
For the molecule B1, the “% Kill” value in the test on PC3 cells (Table 18) is 81%.

B2: H1H6953N-mc-VC-PAB-MMAE (conjugate)
VH: B1 VH
VL: B1 VL
Regarding B2, in the test on PC3 cells (Table 18), the “% Kill” value was 49% and the IC50 came to 130 nM.

B3: H1H6953N-mc-VC-PAB-MMD (conjugate)
VH: B1 VH
VL: B1 VL
Turning to B3, it took 110 nM to reach half-maximal inhibition with HEK293 (293) cells (Table 19) (IC50).

B4: H1H6953N-mc-VC-PAB-MeNHC3-May (conjugate)
VH: B1 VH
VL: B1 VL
Turning to B4, the “% Kill” value in the test with HEK293 (293) cells (Table 19) was determined as 20%.

B5: H1H6975N-DM1 (conjugate)
VH: EVHLVESGGGLVQPGGSLRLSCAASGFTFSSYEMNWVRQTPGKGLEWISHISSRSVIIYYADSVKGRFTISRDNAKNSLFLQMNSLRAEDTAVYFCAGITIFGIPEYWGQGTLVTVSS
VL: EIVLTQSPATLSLSPGERATLSCRASQSVSSYFAWYQQKPGQAPRLLIYDASSRATGIPTRFSGSGSGTDFTLTISSLEPEDFAVYYCQQRSSWPITFGQGTRLEIK
As for B5, in the test with PC3 cells (Table 11, 3 days), the “% Kill” value turned out to be 71%. Besides, the “Average Tumor Growth Inhibition (%)” value was determined as 31% with PC3/PRLR tumors (setting [1]), 118% with MCF7/PRLR tumors (multi-dose 5 mg/kg) and 135% in the test with MCF7/PRLR tumors (multi-dose 15 mg/kg). The “Final Tumor size mm^3 (mean ± SEM)” value in the test on PC3/PRLR tumors (setting [1]) was found to be 973 ± 169 mm^3; with PC3/PRLR tumors (PC3/PRLR tumors TRIAL #1, SCID mice, multi-dose 15 mg/kg, Day 63), 895 ± 63 mm^3; with MCF7/PRLR tumors (multi-dose 5 mg/kg) it was 125 ± 46 mm^3; in the test on MCF7/PRLR tumors (multi-dose 15 mg/kg) it was 0 ± 0 mm^3. Moreover, in the test with PC3/PRLR tumors (multi-dose, especially at 15 mg/kg), the “PC3/PRLR tumor growth” value is “demonstrated inhibition of tumor growth”. Moreover, the “MCF7/PRLR tumor growth” value in the test with MCF7/PRLR tumors (first multi-dose trial, 5 and 15 mg/kg) is reported as “potently inhibited MCF7/PRLR tumor growth”.

B6: H1H6975P-mc-VC-PAB-MMD (conjugate)
VH: B5 VH
VL: B5 VL
Turning to B6, in the test on HEK293 (293) cells (Table 19), the IC50 worked out at 110 nM.

B7: H1H6762P-DM1 (conjugate)
VH: QVQLVESGGGVVQPGRSLRLSCAASGFTFSHYGMVWVRQPPGKGLEWVALISFDGTTKYYADSVKGRFTISRDNSKNTLYLQMNSLRAEDTAVYFCVGAIAAAAFDLWGRGTLVTVSS
VL: EIVMTQSPATLSVSPGERATLSCRASQSVSSDLAWYQQKPGQAPRLLIYSASARATGIPARFTGSGSGTDFTLTISSLQSEDFAVYYCQQYNNWPMYTFGQGTKLEIK
As for B7, in the test on PC3 cells (Table 11, 3 days), the “% Kill” value is 78% and the IC50 stood at 250 nM. In addition, the “% Kill” value in the test with HEK293 (293) cells (Table 11, 3 days) is recorded as 89%.

B8: H1H6800P-DM1 (conjugate)
VH: EVQLVESGGGLVQPGRSLRLSCAASGFTFDGYAMHWVRQGPGKGLEWVSGISWYSDTLGYADSVKGRFTISRDNAKNSLYLQMNSLRTEDTAFYYCAKISSSGWAFDYWGQGTLVTVSS
VL: EIVLTQSPGTLSLSPGERATLSCRASHSVSSAYLAWYQQKPGQTPRLLIYGTSSRATGIPDRFSGSGSGTDFTLTISRLEPEDFAVYYCQQYGSSPLFTFGPGTKVDIK
For B8, the “% Kill” value with PC3 cells (Table 11, 3 days) is 72%.

B9: H1H6960N-DM1 (conjugate)
VH: EVQLVESGGGLVKPGGSLRLSCAASGITFSSYSMNWVRQAPGKGLEWVSSISTRSSLIHYADSVKGRFTISRDNAKNSLYLQMNSLRDEDTAVYYCARWDAAAAFDYWGQGTLVIVSS
VL: DIQLTQSPSFLSASVGDRVTITCWASQGISSYLAWYQQKPGKAPKLLIYVASTLQSGVPSRFSGSGSGTEFTLTISSLQPEDFATYFCQQLNSYPLTFGGGTKVEIK
Take B9: in the test on PC3 cells (Table 11, 3 days), the “% Kill” value amounted to 80%. Moreover, the IC50 stood at 150 nM in the test with PC3 cells (Table 11, 3 days) and 75 nM in the test with HEK293 (293) cells (Table 11, 3 days).

B10: H1H6765P-SMCC-DM1 (conjugate)
VH: EVQLVESGGGVVRPGGSLRLSCVGSGFSFDDHGMNWVRQGPGKGLEWVSGFNWNGGSTNYAESVKGRFTISRDNARNSLFLQMNSLRAEDTALYYCVRGRSGWFNDAFDVWGPGTMVTVSS
VL: EIVLTQSPGTLSLSPGERATLSCRASQTINSNYLAWYRQKPGQTPRLLIYGTSSRATGIPDRFSGSGSGTDFSLTISRLEPEDFAVFYCQQYAGLPTFGPGTKVDIK
As to B10, in the test with PC3 cells (Table 18), the “% Kill” value was 80% and the IC50 was found to be 80 nM.

B11: H1H6765P-mc-VC-PAB-MMAE (conjugate)
VH: B10 VH
VL: B10 VL
Consider B11, for which the “% Kill” value in the test on PC3 cells (Table 18) is 29%.

B12: H1H6782P-mc-VC-PAB-MMD (conjugate)
VH: EVQLVESGGGLVQPGRSLRLSCAASGFTFDDYAMHWVRQAPGKGLEWVSGIIWNSGHIGYGDSVKGRFTISRDNAKKSLYLQMNSLRAEDTALYYCARDSGRYQSYFDYWGQGTLVTVSS
VL: DIQMTQSPSTLSASVGDRVTITCRASHIISSWLAWYQQKPGKAPKVLIFKASSLESGVPSRFSGSGSGTEFTLTISSLQPDDFATYYCQQYNTYSRTFGQGTKVEIK
B12 returned an IC50 with HEK293 (293) cells (Table 19) of 230 nM.

B13: H1H6782P-mc-VC-PAB-MeNHC3-May (conjugate)
VH: B12 VH
VL: B12 VL
In turn, B13 had an IC50 in the test on HEK293 (293) cells (Table 19) of 60 nM.

The values are drawn from US10925971B2, “Methods of treating PRLR positive breast cancer” (Regeneron Pharmaceuticals, Inc., priority 2016, dated 2021).
